The values below are quoted from earlier work in article PMC8144458.

Usually pKa stands for the negative logarithm of the acid dissociation constant.

Among the targets are Asp47 (UniProt position 68, KDKPEDAVLDV); Asp51 (UniProt position 72, EDAVLDVQGIA); Glu46 (UniProt position 67, NKDKPEDAVLD).
What all share (experiment): NMR
What all share (conditions): HdeA without client protein

For “Acid stress chaperone HdeA (Escherichia coli)”, the pKa with Asp47 is given as 4.14; with Asp51, 3.83; in the data set with Glu46, 4.07.
